Assay results: patent US11130793B2, “GLP-1/GLP-2 dual agonists” (Zealand Pharma A/S, priority 2016, dated 2021)
Square brackets hold non-standard residues; d marks the D form. Peptide text beside a SMILES is read from it. Aib = CC(C)(N)C(=O)O

T1: human GLP-2 receptor (Homo sapiens, UniProt O95838, D470N)
T1 sequence (O95838 1-553 D470N): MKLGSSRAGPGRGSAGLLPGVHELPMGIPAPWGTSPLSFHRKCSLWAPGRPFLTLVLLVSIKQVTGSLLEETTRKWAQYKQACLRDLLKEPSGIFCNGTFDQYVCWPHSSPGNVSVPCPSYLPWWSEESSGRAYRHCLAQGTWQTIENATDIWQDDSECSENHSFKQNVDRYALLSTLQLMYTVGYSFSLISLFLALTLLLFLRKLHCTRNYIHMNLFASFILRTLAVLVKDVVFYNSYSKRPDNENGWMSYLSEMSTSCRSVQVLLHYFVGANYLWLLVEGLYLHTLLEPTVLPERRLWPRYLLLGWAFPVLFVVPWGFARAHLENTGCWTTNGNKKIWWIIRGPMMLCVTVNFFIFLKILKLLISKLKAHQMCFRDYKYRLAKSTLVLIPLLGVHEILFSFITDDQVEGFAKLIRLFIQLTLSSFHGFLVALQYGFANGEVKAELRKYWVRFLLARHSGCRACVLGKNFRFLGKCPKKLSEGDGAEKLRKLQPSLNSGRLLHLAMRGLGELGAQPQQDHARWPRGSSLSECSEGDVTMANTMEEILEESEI

T2: human GLP-2 receptor (hGLP2-R) (human, UniProt O95838)
T2 sequence: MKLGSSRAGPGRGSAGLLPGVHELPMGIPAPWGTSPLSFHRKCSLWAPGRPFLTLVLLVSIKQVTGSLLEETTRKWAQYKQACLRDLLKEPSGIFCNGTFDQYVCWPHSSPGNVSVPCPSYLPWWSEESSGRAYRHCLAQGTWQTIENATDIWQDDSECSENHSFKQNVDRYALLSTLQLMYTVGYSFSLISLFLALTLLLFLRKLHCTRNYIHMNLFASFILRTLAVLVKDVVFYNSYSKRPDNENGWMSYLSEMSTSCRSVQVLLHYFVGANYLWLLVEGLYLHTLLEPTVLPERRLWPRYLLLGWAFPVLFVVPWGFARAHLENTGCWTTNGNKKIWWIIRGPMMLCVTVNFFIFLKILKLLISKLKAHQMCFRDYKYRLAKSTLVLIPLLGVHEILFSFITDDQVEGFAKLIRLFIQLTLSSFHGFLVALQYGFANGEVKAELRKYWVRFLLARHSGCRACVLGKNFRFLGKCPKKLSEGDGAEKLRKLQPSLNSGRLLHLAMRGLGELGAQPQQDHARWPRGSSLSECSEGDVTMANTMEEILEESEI


What was measured:
[1] = target: T3, human GLP-1 receptor (Homo sapiens, UniProt P43220); assay: GLP-1 receptor potency assay (cAMP AlphaScreen, HEK293 cells stably expressing GLP-1R); format: cell-based; conditions: cAMP response, HEK293 cells expressing human GLP-1R; read-out: EC50 GLP-1
T3 construct: expressed in transfected cells
T3 sequence (P43220 24-463): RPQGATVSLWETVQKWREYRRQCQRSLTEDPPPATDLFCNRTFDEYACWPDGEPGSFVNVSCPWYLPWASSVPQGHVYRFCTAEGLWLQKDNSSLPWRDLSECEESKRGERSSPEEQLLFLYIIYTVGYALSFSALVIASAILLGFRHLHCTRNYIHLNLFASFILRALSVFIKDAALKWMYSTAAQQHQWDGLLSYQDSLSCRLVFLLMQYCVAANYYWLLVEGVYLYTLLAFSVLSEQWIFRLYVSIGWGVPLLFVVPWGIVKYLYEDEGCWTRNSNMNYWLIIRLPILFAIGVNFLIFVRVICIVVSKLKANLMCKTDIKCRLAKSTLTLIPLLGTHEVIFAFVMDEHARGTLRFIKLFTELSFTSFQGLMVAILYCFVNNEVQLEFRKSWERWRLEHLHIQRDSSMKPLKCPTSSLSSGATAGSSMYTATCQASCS
Source text: (§1) One useful in vitro assay for measuring GLP-1 and GLP-2 receptor activity is quantitation of cAMP, i.e. 3′-5′-cyclic adenosine monophosphate, which is a second messenger essential in many biological processes, and one of the most ubiquitous mechanisms for regulating cellular functions. […] Test compounds eliciting an increase in the intracellular level of cAMP can be tested in these assays, and the response normalized relative to a positive and negative control (vehicle) to calculate the EC50 and maximal response from the concentration response curve using the 4-parameter logistic (4PL) nonlinear model for curve fitting.
The cDNA encoding the human glucagon-like peptide 1 receptor (GLP-1R) (primary accession number P43220) was cloned from the cDNA BC112126 (MGC:138331/IMAGE:8327594). The DNA encoding the GLP-1-R was amplified by PCR using primers encoding terminal restriction sites for subcloning. The 5′-end primers additionally encoded a near Kozak consensus sequence to ensure efficient translation. […] The PCR products encoding the GLP-1-R were subcloned into a mammalian expression vector containing a neomycin (G418) resistance marker. The mammalian expression vectors encoding the GLP-1-R were transfected into HEK293 cells by a standard calcium phosphate transfection method. 48 hours post-transfection, cells were seeded for limited dilution cloning and selected with 1 mg/ml G418 in the culture medium. Following 3 weeks in G418 selection clones were picked and tested in a functional GLP-1 receptor potency assay as described below.
(§2) The cAMP AlphaScreen assay from Perkin Elmer was used to quantitate the cAMP response to activation of the GLP1 and GLP2 receptor, respectively. […] Data from test compounds eliciting an increase in the intracellular level of cAMP were normalized relative to the positive and negative control (vehicle) to calculate the EC50 and maximal response from the concentration response curve.

[2] = target: T1, human GLP-2 receptor; assay: GLP-2 receptor potency assay (cAMP AlphaScreen, HEK293 cells stably expressing GLP-2R); format: cell-based; conditions: cAMP response, HEK293 cells expressing human GLP-2R
Source text: as §1
The hGLP2-R was purchased from MRC-geneservice, Babraham, Cambridge as an Image clone: 5363415 (11924-I17). For subcloning into a mammalian expression vector, primers for subcloning were obtained from DNA-Technology, Risskov, Denmark. The 5′ and 3′ primers used for the PCR reaction include terminal restriction sites for cloning and the context of the 5′ primer is modified to a Kozak consensus without changing the sequence of the product encoded by the ORF. A standard PCR reaction was run using Image clone 5363415 (11924-117) as a template with the above mentioned primers and Polymerase Herculase II Fusion in a total vol. of 50 μl. The generated PCR product was purified using GFX PCR and Gel band purification kit, digested with restriction enzymes and cloned into the mammalian expression vector using Rapid DNA Ligation Kit. Ligation reaction was transformed to XL10 Gold Ultracompetent cells and colonies were picked for DNA production using Endofree Plasmid maxi kit. Subsequent sequence analysis was conducted by MWG Eurofins, Germany.
HEK293 cells were transfected using the Lipofectamine PLUS transfection method. The day before transfection, HEK293 cells were seeded in two T75 flasks at a density of 2×10^6 cells/T75 flask in cell culturing medium without antibiotics. On the day of transfection, cells were washed with 1×DPBS and medium was replaced with Optimem to a volume of 5 mL/T75 flask before addition of Lipofectamine-plasmid complexes were added gently and drop wise to the cells in T75 flasks and replaced with growth medium after 3 hours and again to growth medium supplemented with 500 μg/mL G418 after 24 hours. Following 4 weeks in G418 selection, clones were picked and tested in a functional GLP-2 receptor potency assay as described below.
as §2

[3] = target: human glucagon-like peptide 1 receptor (GLP-1R) (human, UniProt P43220); assay: cell-based or functional assay
[4] = target: T2, human GLP-2 receptor (hGLP2-R); assay: cell-based or functional assay

| Molecule | EC50 [1] | EC50 [2] | EC50 GLP-1 (nM); cAMP AlphaScreen [3] | EC50 GLP-2 (nM); cAMP AlphaScreen [4] |
| --- | --- | --- | --- | --- |
| CC[C@H](C)[C@H](NC(=O)[C@H](CC(C)C)NC(=O)[C@H](Cc1c[nH]c2ccccc12)NC(=O)[C@H](C)NC(=O)[C@@H](NC(=O)[C@H](Cc1ccccc1)NC(=O)[C@H](CC(=O)O)NC(=O)[C@H](CCCNC(=N)N)NC(=O)[C@H](C)NC(=O)[C@H](C)NC(=O)[C@H](CCC(N)=O)NC(=O)[C@H](CCC(=O)O)NC(=O)[C@H](CC(=O)O)NC(=O)[C@H](CC(C)C)NC(=O)[C@@H](NC(=O)[C@@H](NC(=O)[C@H](C)NC(=O)[C@H](CC(C)C)NC(=O)[C@H](CCC(=O)O)NC(=O)[C@H](CO)NC(=O)[C@@H](NC(=O)[C@H](Cc1ccccc1)NC(=O)[C@@H](NC(=O)CNC(=O)[C@H](CCC(=O)O)NC(=O)C(C)(C)NC(=O)[C@@H](N)Cc1c[nH]cn1)[C@@H](C)O)[C@@H](C)O)[C@@H](C)O)[C@@H](C)CC)[C@@H](C)CC)C(=O)N[C@@H](C)C(=O)N[C@@H](CCC(N)=O)C(=O)N[C@@H](CCCCN)C(=O)N[C@H](C(=O)N[C@H](C(=O)N[C@@H](CC(=O)O)C(=O)O)[C@@H](C)O)[C@@H](C)CC [Compound 19] (H-H[Aib]EGTFTSELATILDEQAARDFIAWLIAQKITD-OH) | 0.005 nM | 0.15 nM | – | – |
| CC[C@H](C)[C@H](NC(=O)[C@H](Cc1ccccc1)NC(=O)[C@H](CC(=O)O)NC(=O)[C@H](CCCNC(=N)N)NC(=O)[C@H](C)NC(=O)[C@H](C)NC(=O)[C@H](CC(C)C)NC(=O)[C@H](CC(N)=O)NC(=O)[C@H](CC(=O)O)NC(=O)[C@H](CC(C)C)NC(=O)[C@@H](NC(=O)[C@@H](NC(=O)[C@H](CC(N)=O)NC(=O)[C@H](CCSC)NC(=O)[C@H](CCC(=O)O)NC(=O)[C@H](CC(=O)O)NC(=O)[C@H](CO)NC(=O)[C@H](Cc1ccccc1)NC(=O)[C@H](CO)NC(=O)CNC(=O)[C@H](CC(=O)O)NC(=O)CNC(=O)[C@@H](N)Cc1c[nH]cn1)[C@@H](C)O)[C@@H](C)CC)C(=O)N[C@@H](CC(N)=O)C(=O)N[C@@H](Cc1c[nH]c2ccccc12)C(=O)N[C@@H](CC(C)C)C(=O)N[C@H](C(=O)N[C@@H](CCC(N)=O)C(=O)N[C@H](C(=O)N[C@@H](CCCCN)C(=O)N[C@H](C(=O)N[C@H](C(=O)N[C@@H](CC(=O)O)C(=O)O)[C@@H](C)O)[C@@H](C)CC)[C@@H](C)O)[C@@H](C)CC [Teduglutide, [Gly2]-hGLP-2 (1-33), reference compound] | 39 nM | – | – | – |
| H-H[Aib]EGSFSSELATILDEQAARDFIAWLIQHKITD-OH (SMILES CC[C@H](C)[C@H](NC(=O)[C@H](Cc1ccccc1)NC(=O)[C@H](CC(=O)O)NC(=O)[C@H](CCCNC(=N)N)NC(=O)[C@H](C)NC(=O)[C@H](C)NC(=O)[C@H](CCC(N)=O)NC(=O)[C@H](CCC(=O)O)NC(=O)[C@H](CC(=O)O)NC(=O)[C@H](CC(C)C)NC(=O)[C@@H](NC(=O)[C@@H](NC(=O)[C@H](C)NC(=O)[C@H](CC(C)C)NC(=O)[C@H](CCC(=O)O)NC(=O)[C@H](CO)NC(=O)[C@H](CO)NC(=O)[C@H](Cc1ccccc1)NC(=O)[C@H](CO)NC(=O)CNC(=O)[C@H](CCC(=O)O)NC(=O)C(C)(C)NC(=O)[C@@H](N)Cc1c[nH]cn1)[C@@H](C)O)[C@@H](C)CC)C(=O)N[C@@H](C)C(=O)N[C@@H](Cc1c[nH]c2ccccc12)C(=O)N[C@@H](CC(C)C)C(=O)N[C@H](C(=O)N[C@@H](CCC(N)=O)C(=O)N[C@@H](Cc1c[nH]cn1)C(=O)N[C@@H](CCCCN)C(=O)N[C@H](C(=O)N[C@H](C(=O)N[C@@H](CC(=O)O)C(=O)O)[C@@H](C)O)[C@@H](C)CC)[C@@H](C)CC) [Compound 41] | – | – | 0.078 nM | 0.026 nM |
| H-H[Aib]EGTFSSELSTILEEQASREFIAWLIAHKITE-OH (SMILES CC[C@H](C)[C@H](NC(=O)[C@H](CC(C)C)NC(=O)[C@H](Cc1c[nH]c2ccccc12)NC(=O)[C@H](C)NC(=O)[C@@H](NC(=O)[C@H](Cc1ccccc1)NC(=O)[C@H](CCC(=O)O)NC(=O)[C@H](CCCNC(=N)N)NC(=O)[C@H](CO)NC(=O)[C@H](C)NC(=O)[C@H](CCC(N)=O)NC(=O)[C@H](CCC(=O)O)NC(=O)[C@H](CCC(=O)O)NC(=O)[C@H](CC(C)C)NC(=O)[C@@H](NC(=O)[C@@H](NC(=O)[C@H](CO)NC(=O)[C@H](CC(C)C)NC(=O)[C@H](CCC(=O)O)NC(=O)[C@H](CO)NC(=O)[C@H](CO)NC(=O)[C@H](Cc1ccccc1)NC(=O)[C@@H](NC(=O)CNC(=O)[C@H](CCC(=O)O)NC(=O)C(C)(C)NC(=O)[C@@H](N)Cc1c[nH]cn1)[C@@H](C)O)[C@@H](C)O)[C@@H](C)CC)[C@@H](C)CC)C(=O)N[C@@H](C)C(=O)N[C@@H](Cc1c[nH]cn1)C(=O)N[C@@H](CCCCN)C(=O)N[C@H](C(=O)N[C@H](C(=O)N[C@@H](CCC(=O)O)C(=O)O)[C@@H](C)O)[C@@H](C)CC) [Compound 39] | – | – | 0.03 nM | 0.96 nM |
| H-HGEGSFSSELATILDEQAARDFIAWLIQHKITD-NH2 [Compound 40] | – | – | 1.4 nM | 0.05 nM |
| H-HGEGTFTSELATILDEQAARDFIAWLIAHKITD-OH [Compound 38] | – | – | 0.008 nM | 0.043 nM |
| H-H[Aib]EGTFTSELATILDEQAARDFINWLKEQKITD-OH (SMILES CC[C@H](C)[C@H](NC(=O)[C@H](Cc1ccccc1)NC(=O)[C@H](CC(=O)O)NC(=O)[C@H](CCCNC(=N)N)NC(=O)[C@H](C)NC(=O)[C@H](C)NC(=O)[C@H](CCC(N)=O)NC(=O)[C@H](CCC(=O)O)NC(=O)[C@H](CC(=O)O)NC(=O)[C@H](CC(C)C)NC(=O)[C@@H](NC(=O)[C@@H](NC(=O)[C@H](C)NC(=O)[C@H](CC(C)C)NC(=O)[C@H](CCC(=O)O)NC(=O)[C@H](CO)NC(=O)[C@@H](NC(=O)[C@H](Cc1ccccc1)NC(=O)[C@@H](NC(=O)CNC(=O)[C@H](CCC(=O)O)NC(=O)C(C)(C)NC(=O)[C@@H](N)Cc1c[nH]cn1)[C@@H](C)O)[C@@H](C)O)[C@@H](C)O)[C@@H](C)CC)C(=O)N[C@@H](CC(N)=O)C(=O)N[C@@H](Cc1c[nH]c2ccccc12)C(=O)N[C@@H](CC(C)C)C(=O)N[C@@H](CCCCN)C(=O)N[C@@H](CCC(=O)O)C(=O)N[C@@H](CCC(N)=O)C(=O)N[C@@H](CCCCN)C(=O)N[C@H](C(=O)N[C@H](C(=O)N[C@@H](CC(=O)O)C(=O)O)[C@@H](C)O)[C@@H](C)CC) [Compound 37] | – | – | 0.007 nM | 0.16 nM |
